The target in this data set is EGFP-hTNF-α fusion protein comprising the enterokinase-recognizing sequence, P01375.
Sequence of EGFP-hTNF-α fusion protein comprising the enterokinase-recognizing sequence, P01375 (P01375 other isoform, or with tags, fused parts or gaps): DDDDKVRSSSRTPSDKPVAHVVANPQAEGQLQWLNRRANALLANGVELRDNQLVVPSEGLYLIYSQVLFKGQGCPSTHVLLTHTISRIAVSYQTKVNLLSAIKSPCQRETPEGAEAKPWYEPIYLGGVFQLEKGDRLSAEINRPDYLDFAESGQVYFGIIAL

B1: human enterokinase light chain protein produced in transformed rice suspension cells (protein)
chain: IVGGSNAKEGAWPWVVGLYYGGRLLCGASLVSSDWLVSAAHCVYGRNLEPSKWTAILGLHMKSNLTSPQTVPRLIDEIVINPHYNRRRKDNDIAMMHLEFKVNYTDYIQPICLPEENQVFPPGRNCSIAGWGTVVYQGTTANILQEADVPLLSNERCQQQMPEYNITENMICAGYEEGGIDSCQGDSGGPLMCQENNRWFLAGVTSFGYKCALPNRPGVYARVSRFTEWIQSFLH
As for B1, the endopeptidase activity result is “exhibited the activity of the human enterokinase light chain protein, i.e., recognizing and cleaving the DDDDK amino acid sequence”.

These data come from patent US20150020238.
